These results are taken from patent US20030119102A1.

The experiment has as its target T1, rat Kv4.2 α-subunit (rat) (UniProt Q63881).
T1 sequence (looked up): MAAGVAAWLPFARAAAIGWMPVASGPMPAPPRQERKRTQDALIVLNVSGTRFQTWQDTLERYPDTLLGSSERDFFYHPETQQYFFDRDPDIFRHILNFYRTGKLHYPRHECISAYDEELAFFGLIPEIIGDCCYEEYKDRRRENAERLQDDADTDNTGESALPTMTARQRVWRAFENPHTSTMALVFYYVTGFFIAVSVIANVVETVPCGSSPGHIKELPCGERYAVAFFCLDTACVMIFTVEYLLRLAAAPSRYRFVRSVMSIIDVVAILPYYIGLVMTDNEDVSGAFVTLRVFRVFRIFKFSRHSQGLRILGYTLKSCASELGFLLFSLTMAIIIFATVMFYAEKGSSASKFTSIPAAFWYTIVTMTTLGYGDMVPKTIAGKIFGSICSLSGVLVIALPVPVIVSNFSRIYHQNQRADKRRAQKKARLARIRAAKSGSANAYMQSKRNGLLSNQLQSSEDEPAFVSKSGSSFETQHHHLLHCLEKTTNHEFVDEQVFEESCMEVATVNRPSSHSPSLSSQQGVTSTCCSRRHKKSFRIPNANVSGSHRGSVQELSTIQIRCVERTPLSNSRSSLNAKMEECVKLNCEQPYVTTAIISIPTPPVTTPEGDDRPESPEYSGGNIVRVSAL
Briefly: cell-based or functional assay.

B1: KChIP3 (p19) (protein, UniProt Q9Y2W7 1-256, looked up, species assumed)
Calsenilin: MQPAKEVTKASDGSLLGDLGHTPLSKKEGIKWQRPRLSRQALMRCCLVKWILSSTAPQGSDSSDSELELSTVRHQPEGLDQLQAQTKFTKKELQSLYRGFKNECPTGLVDEDTFKLIYAQFFPQGDATTYAHFLFNAFDADGNGAIHFEDFVVGLSILLRGTVHEKLKWAFNLYDINKDGYITKEEMLAIMKSIYDMMGRHTYPILREDAPAEHVERFFEKMDRNQDGVVTIEEFLEACQKDENIMSSMQLFENVI
For the molecule B1, the Inactivation time constant (ms, at 50 mV), CHO cells (rKv4.2 + vector: 28.2) was 67.2 ms; the Peak Current (nA/cell at 50 mV), CHO cells, patch clamp (rKv4.2 + vector: 0.60) came to 3.5 nA/cell; the Peak Current Density (pA/pF at 50 mV), CHO cells (rKv4.2 + vector: 25.5) was 162 pA/pF; the Recovery from Inactivation Time constant, CHO cells (rKv4.2 + vector: 272.2) is 126 ms.

B2: KChIP2 (9ql) (protein, UniProt Q9NS61 1-270, looked up, species assumed)
A-type potassium channel modulatory protein KCNIP2: MRGQGRKESLSDSRDLDGSYDQLTGHPPGPTKKALKQRFLKLLPCCGPQALPSVSETLAAPASLRPHRPRLLDPDSVDDEFELSTVCHRPEGLEQLQEQTKFTRKELQVLYRGFKNECPSGIVNEENFKQIYSQFFPQGDSSTYATFLFNAFDTNHDGSVSFEDFVAGLSVILRGTVDDRLNWAFNLYDLNKDGCITKEEMLDIMKSIYDMMGKYTYPALREEAPREHVESFFQKMDRNKDGVVTIEEFIESCQKDENIMRSMQLFDNVI
On to B2, for which the Inactivation time constant (ms, at 50 mV), CHO cells (rKv4.2 + vector: 28.2) was 95.1 ms; the Peak Current (nA/cell at 50 mV), CHO cells, patch clamp (rKv4.2 + vector: 0.60) is 3.3 nA/cell; the Peak Current Density (pA/pF at 50 mV), CHO cells (rKv4.2 + vector: 25.5) came out at 197 pA/pF; the Recovery from Inactivation Time constant, CHO cells (rKv4.2 + vector: 272.2) came out at 49.5 ms.
